The subject of one series is Fer (mouse). The series is described as follows: phosphorylation enrichment, bacterial display (enrichment ratio); higher = better substrate or ligand; peptides without Tyr show the background.
For a further series, the system named is AncSZ. The series is described as above.
The target of another series is EPHB1 (UniProt P54762). The series is described as above.
The target in another series is FGFR1 (UniProt P11362). Described as above.
A further series has as its target MERTK (UniProt Q12866). The description is as above.
The next series concerns the target Fyn (UniProt P06241). The series is described as above.
Another series deals with c-Src. The series is described as above.
Another series has as its target EPHB2 (UniProt P29323). The series is described as above.
The target of the next series is Fes (UniProt P07332). The description is as above.
Sequence of Fes (P07332 whole entry, looked up): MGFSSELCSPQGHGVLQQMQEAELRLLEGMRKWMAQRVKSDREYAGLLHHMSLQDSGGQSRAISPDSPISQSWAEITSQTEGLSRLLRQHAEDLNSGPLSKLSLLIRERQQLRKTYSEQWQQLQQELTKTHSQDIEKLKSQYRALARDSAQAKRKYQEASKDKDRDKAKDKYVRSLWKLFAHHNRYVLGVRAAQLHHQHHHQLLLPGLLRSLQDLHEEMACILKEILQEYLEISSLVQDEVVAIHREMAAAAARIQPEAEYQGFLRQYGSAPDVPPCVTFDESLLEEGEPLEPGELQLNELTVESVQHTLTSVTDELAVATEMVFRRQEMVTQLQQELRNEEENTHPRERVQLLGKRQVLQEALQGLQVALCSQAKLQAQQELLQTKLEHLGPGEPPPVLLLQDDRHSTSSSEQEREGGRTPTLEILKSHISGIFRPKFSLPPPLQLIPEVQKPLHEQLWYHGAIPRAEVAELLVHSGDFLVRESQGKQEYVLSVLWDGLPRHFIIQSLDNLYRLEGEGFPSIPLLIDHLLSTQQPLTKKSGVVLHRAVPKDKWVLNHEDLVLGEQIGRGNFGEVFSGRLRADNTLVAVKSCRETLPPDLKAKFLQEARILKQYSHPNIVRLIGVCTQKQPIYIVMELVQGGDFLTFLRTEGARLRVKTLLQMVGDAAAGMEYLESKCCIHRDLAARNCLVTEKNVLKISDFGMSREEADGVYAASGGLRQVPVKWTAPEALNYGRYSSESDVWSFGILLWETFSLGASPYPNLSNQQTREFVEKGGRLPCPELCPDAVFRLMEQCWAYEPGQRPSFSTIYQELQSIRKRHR
The next series has as its target Jak2 (UniProt O60674). The series is described as above.
In a further series the target is Hck (UniProt P08631). The series is described as above.
For the next series, the target named is FGFR3 (UniProt P22607). The series is described as above.
For another series, the system named is c-Abl (mouse). The description is as above.
The target of the next series is c-Src SH2. Nature of the series: SH2 binding enrichment of the phosphorylated peptide, bacterial display (enrichment ratio); higher = better substrate or ligand; peptides without Tyr show the background.
In a further series the target is Grb2 SH2 (UniProt P62993). The description is as above.
Sequence of Grb2 SH2 (P62993 whole entry, looked up): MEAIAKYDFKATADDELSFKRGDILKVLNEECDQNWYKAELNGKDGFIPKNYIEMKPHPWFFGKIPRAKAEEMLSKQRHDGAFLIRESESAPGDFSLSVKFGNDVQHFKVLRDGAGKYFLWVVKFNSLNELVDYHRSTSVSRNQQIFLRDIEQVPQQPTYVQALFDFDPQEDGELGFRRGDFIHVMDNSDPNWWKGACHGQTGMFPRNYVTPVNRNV
For the next series, the target named is SHP2-C SH2. The series is described as above.

For seven sequences, phosphorylation enrichment and SH2 binding enrichment results are on record in the supplement of paper PMC10065799, “High-throughput profiling of sequence recognition by tyrosine kinases and SH2 domains using bacterial peptide display” (eLife, 2023).
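Wherever SH2 binding enrichment of the phosphorylated peptide, bacterial display is given: peptide library displayed on the E. coli surface as eCPX fusions, selected cells deep-sequenced, score is each peptide's frequency after selection divided by its frequency in the input.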
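Wherever phosphorylation enrichment, bacterial display is given: 11-residue human phosphosite peptides and single-mutation variants displayed on the E. coli surface, counted by deep sequencing, each peptide's frequency after selection divided by its frequency in the unselected input library; frequency after pTyr selection over input frequency; kinase dosed for 20-30% of maximal phosphorylation in three min.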

Sequence of MERTK (Q12866 whole entry, looked up): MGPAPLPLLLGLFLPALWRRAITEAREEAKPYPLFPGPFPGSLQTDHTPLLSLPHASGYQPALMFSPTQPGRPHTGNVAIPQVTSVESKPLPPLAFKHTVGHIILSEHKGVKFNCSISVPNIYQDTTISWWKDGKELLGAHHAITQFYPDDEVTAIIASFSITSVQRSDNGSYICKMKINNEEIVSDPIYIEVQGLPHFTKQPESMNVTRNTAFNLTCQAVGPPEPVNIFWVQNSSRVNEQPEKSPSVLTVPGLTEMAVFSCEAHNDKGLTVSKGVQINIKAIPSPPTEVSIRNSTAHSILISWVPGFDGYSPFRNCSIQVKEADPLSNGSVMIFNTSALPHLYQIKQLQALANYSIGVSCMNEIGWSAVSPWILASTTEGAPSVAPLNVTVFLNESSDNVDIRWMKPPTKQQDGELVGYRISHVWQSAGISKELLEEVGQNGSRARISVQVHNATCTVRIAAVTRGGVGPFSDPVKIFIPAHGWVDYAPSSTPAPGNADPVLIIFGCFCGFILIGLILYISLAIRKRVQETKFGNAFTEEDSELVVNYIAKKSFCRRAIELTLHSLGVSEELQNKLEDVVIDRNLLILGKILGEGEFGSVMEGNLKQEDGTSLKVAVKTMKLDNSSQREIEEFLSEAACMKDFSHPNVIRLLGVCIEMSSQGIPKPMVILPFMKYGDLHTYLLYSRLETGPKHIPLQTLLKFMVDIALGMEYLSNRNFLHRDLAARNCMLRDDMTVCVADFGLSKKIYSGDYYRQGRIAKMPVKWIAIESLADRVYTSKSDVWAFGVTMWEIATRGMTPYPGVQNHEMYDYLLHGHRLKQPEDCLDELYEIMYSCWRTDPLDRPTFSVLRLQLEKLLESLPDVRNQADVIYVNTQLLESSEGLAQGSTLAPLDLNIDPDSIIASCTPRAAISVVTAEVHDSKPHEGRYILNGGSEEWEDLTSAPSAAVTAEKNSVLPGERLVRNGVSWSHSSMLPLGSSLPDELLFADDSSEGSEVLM
Sequence of EPHB2 (P29323 whole entry, looked up): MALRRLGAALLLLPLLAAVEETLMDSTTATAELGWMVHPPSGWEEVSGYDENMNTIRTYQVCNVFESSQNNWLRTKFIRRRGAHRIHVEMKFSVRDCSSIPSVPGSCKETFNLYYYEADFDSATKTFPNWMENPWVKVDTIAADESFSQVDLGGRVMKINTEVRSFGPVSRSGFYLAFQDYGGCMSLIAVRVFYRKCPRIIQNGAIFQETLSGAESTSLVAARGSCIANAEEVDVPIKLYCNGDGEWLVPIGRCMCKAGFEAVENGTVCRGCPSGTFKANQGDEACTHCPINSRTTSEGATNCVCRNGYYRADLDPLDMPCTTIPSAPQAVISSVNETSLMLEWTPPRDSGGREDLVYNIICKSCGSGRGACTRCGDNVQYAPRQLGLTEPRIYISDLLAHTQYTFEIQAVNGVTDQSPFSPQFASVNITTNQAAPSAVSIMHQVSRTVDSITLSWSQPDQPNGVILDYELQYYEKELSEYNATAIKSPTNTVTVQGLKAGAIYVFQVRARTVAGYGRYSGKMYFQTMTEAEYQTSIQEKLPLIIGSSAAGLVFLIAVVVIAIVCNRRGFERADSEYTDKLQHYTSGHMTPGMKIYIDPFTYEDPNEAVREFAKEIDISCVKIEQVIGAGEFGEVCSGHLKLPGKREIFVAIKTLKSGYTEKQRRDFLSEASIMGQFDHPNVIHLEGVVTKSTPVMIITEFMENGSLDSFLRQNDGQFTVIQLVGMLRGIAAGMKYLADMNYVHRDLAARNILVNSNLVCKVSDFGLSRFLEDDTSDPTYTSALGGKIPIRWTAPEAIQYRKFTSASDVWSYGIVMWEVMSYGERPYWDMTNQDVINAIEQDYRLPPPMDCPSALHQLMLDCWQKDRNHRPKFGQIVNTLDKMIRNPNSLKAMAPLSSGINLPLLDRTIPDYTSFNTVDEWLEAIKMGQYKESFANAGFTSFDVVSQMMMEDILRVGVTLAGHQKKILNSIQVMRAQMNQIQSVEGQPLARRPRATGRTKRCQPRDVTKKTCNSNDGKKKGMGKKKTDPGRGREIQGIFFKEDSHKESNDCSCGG
Sequence of EPHB1 (P54762 whole entry, looked up): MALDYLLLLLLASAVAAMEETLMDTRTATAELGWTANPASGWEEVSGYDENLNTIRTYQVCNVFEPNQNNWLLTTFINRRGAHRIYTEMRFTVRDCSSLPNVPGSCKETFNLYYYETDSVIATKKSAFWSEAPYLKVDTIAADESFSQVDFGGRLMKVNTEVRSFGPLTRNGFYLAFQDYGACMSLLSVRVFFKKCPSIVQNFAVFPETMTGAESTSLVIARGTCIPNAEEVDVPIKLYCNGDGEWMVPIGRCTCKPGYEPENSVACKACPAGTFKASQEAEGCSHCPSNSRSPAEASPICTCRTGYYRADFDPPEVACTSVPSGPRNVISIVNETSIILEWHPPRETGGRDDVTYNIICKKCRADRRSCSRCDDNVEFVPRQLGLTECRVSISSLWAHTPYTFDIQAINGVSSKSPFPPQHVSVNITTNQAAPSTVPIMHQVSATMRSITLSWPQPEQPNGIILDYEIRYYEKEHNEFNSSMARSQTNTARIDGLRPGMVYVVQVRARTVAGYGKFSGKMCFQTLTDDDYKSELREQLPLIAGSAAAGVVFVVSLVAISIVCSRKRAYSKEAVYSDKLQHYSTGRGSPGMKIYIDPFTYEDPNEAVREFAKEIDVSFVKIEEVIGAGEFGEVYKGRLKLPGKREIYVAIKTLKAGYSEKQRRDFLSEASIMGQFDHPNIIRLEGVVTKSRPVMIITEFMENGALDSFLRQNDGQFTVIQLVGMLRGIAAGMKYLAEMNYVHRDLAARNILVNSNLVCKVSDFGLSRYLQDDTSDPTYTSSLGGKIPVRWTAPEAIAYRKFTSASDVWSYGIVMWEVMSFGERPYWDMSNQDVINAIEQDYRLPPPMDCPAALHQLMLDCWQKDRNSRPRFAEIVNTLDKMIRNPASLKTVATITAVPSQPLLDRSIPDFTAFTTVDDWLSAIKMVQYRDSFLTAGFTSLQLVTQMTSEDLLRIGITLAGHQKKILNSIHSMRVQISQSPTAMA
Sequence of FGFR1 (P11362 whole entry, looked up): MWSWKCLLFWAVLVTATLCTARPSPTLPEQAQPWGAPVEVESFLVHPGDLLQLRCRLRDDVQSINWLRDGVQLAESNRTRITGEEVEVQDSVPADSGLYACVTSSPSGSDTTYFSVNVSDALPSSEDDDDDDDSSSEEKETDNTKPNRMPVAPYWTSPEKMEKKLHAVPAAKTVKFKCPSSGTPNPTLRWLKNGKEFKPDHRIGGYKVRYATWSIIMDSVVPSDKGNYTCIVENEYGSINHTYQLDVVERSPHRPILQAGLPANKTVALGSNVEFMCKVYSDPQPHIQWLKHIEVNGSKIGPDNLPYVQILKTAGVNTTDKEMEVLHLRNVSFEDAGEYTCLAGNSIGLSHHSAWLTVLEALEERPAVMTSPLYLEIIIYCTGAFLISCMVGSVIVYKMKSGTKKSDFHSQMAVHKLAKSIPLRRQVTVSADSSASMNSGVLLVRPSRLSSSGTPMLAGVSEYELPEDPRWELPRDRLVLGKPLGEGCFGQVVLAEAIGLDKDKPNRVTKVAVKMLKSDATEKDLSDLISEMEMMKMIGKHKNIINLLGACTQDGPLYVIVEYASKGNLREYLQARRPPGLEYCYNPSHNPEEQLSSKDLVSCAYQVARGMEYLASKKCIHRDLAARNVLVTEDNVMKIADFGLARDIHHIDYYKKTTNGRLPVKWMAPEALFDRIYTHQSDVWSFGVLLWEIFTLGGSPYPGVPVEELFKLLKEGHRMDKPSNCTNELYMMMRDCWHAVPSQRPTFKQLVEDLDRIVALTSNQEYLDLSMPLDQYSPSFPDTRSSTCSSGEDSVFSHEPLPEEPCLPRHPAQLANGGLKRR

Turning to VKANTYEKYWP [GATM_Y100], the phosphorylation enrichment in the series with Fer (mouse) came to 0.506; in the series with AncSZ, 0.785; in the series with EPHB1, 0.59; with FGFR1 it was 0.454; with MERTK, 0.976; with Fyn, 1.32. Further, the phosphorylation enrichment in the series with c-Src came to 2.02; with EPHB2, 0.825; with Fes, 0.71; with Jak2, 0.728; in the series with Hck, 1.01; with FGFR3, 0.471. In the series on c-Abl (mouse), the phosphorylation enrichment was determined as 0.492. In addition, the SH2 binding enrichment with c-Src SH2 was 1.02; with Grb2 SH2, 1.12; in the series with SHP2-C SH2, 0.888.
As for KVPRHYDDPGK [FOXG1_Y246], the phosphorylation enrichment in the series with Fer (mouse) stood at 1.11; in the series on AncSZ it was 0.785; in the series with EPHB1, 0.414; with FGFR1 it was 0.428; in the series with MERTK, 0.462; in the series with Fyn, 0.443. In addition, the phosphorylation enrichment with c-Src was found to be 0.505; in the series with EPHB2, 0.373; in the series with Fes, 1.16; in the series with Jak2, 1.25; in the series with Hck, 0.481; with FGFR3, 0.712. Moreover, the phosphorylation enrichment with c-Abl (mouse) was determined as 1.01. Also, the SH2 binding enrichment with c-Src SH2 was found to be 1.56; with Grb2 SH2 it was 1.26; with SHP2-C SH2 it was 1.2.
Take RKVLVYDKLNV [ROR2_Y624_N620K]: the phosphorylation enrichment in the series with Fer (mouse) stood at 1.25; in the series on AncSZ it was 0.875; with EPHB1, 1.37; in the series with FGFR1, 0.49; with MERTK, 2; with Fyn, 1.71. In addition, the phosphorylation enrichment with c-Src is 1.82; with EPHB2, 0.794; in the series with Fes, 0.852; with Jak2 it was 0.548; in the series with Hck it was 10.3; in the series with FGFR3, 0.44. Also, the phosphorylation enrichment with c-Abl (mouse) was 0.854. Further, the results for the SH2 binding enrichment in the series with c-Src SH2, with Grb2 SH2 and in the series with SHP2-C SH2 were 1.44, 0.906 and 1.09, respectively.
Take TNEYEYDELIV [TGM1_Y136_D132N]: the phosphorylation enrichment with Fer (mouse) worked out at 0.593; in the series with AncSZ it was 1.45; in the series with EPHB1 it was 0.814; in the series with FGFR1, 0.809; with MERTK, 0.525; in the series with Fyn, 0.952. Moreover, the phosphorylation enrichment with c-Src stood at 0.981; with EPHB2, 0.975; with Fes it was 1.23; in the series with Jak2, 1.29; with Hck it was 0.769; in the series with FGFR3, 0.925. Also, in the series with c-Abl (mouse), the phosphorylation enrichment came out at 0.962. Also, the values for the SH2 binding enrichment with c-Src SH2, with Grb2 SH2 and in the series with SHP2-C SH2 were 0.84, 0.798 and 0.854, respectively.
QRRLVYYEGGA [RYR1_Y245]: the phosphorylation enrichment turned out to be 0.536 in the series with Fer (mouse); 0.788 in the series with AncSZ; 0.402 in the series with EPHB1; 0.497 with FGFR1; 1.15 with MERTK; 0.369 in the series with Fyn. Moreover, the phosphorylation enrichment in the series with c-Src was found to be 0.583; with EPHB2, 0.606; with Fes, 1.11; with Jak2 it was 0.682; with Hck it was 0.421; in the series with FGFR3, 0.602. For the same sequence, the phosphorylation enrichment with c-Abl (mouse) is 0.728. The values for the SH2 binding enrichment with c-Src SH2, in the series with Grb2 SH2 and with SHP2-C SH2 were 1.06, 1.17 and 0.803, respectively.
Consider ATPKGYETDAS [OTC_Y223_P225T], for which the phosphorylation enrichment amounted to 0.416 in the series with Fer (mouse); 0.735 in the series with AncSZ; 0.502 with EPHB1; 0.54 with FGFR1; 0.421 with MERTK; 0.44 with Fyn. Also, the phosphorylation enrichment in the series with c-Src was found to be 0.524; with EPHB2, 0.543; with Fes, 0.743; in the series with Jak2 it was 0.667; in the series with Hck it was 0.438; in the series with FGFR3 it was 0.616. Besides, the phosphorylation enrichment in the series with c-Abl (mouse) is 0.622. Further, the SH2 binding enrichment with c-Src SH2 is 0.56; in the series with Grb2 SH2, 0.866; with SHP2-C SH2 it was 0.596.
EYYENYIEELK [PARP4_Y218_F215Y]: the phosphorylation enrichment in the series on Fer (mouse) amounted to 0.706; in the series on AncSZ, 2.04; with EPHB1, 1.09; in the series with FGFR1 it was 4.75; with MERTK, 0.38; with Fyn it was 0.648. Further, the phosphorylation enrichment stood at 1.01 with c-Src; 0.967 with EPHB2; 1.29 with Fes; 1.11 in the series with Jak2; 0.554 with Hck; 3.7 with FGFR3. Moreover, the phosphorylation enrichment in the series with c-Abl (mouse) is 0.775. Besides, the SH2 binding enrichment came out at 1.04 with c-Src SH2, 2.13 with Grb2 SH2 and 0.706 in the series with SHP2-C SH2.
